Results: US20120053125

Tests used:
human I-1 (S67D/T75D) = system: T1, human I-1 (S67D/T75D)
T1 sequence: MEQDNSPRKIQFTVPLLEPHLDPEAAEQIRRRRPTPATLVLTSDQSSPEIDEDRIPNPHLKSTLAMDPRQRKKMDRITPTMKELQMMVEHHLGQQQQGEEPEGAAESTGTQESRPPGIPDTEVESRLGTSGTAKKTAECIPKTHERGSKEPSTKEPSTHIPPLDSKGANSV

[1] = system: human phosphatase inhibitor-1 (I-1) wild type, dephosphorylated
[2] = system: human I-1 (S67A), unphosphorylated
[3] = system: human I-1 (T75A), unphosphorylated

| Substance | 32P incorporation upon PKA incubation, decrease against wild-type (human I-1 (S67D/T75D)) | stoichiometry of phosphorylation at 45 min [1] | 32P incorporated per protein at steady state (20-45 min), percent of wild type [2] | stoichiometry of phosphorylation at 45 min [2] | 32P incorporation upon PKC-α incubation (human I-1 (S67A/T75A)) | 32P incorporated per protein at 45 min, percent of wild type [3] | stoichiometry of phosphorylation at 45 min [3] |
| --- | --- | --- | --- | --- | --- | --- | --- |
| Protein Kinase A (PKA, cAMP-dependent protein kinase), Upstate Biotechnology | the double mutant incorporated 29% less radioactivity than the wild-type | – | – | – | – | – | – |
| Protein Kinase C alpha (PKC-α), Upstate Biotechnology | – | I-1 wild-type was phosphorylated by PKC-α for 45 min to a stoichiometry of 0.88 mol Pi/mol protein | I-1 (S67A) incorporated 40±8.6% of the radioactivity levels present in wild types (100%) | the incorporation of Pi into I-1(S67A) and I-1(T75A) were reduced to 0.35 and 0.30 mol Pi/mol protein, respectively | mutation of both Ser-67 and Thr-75 to Ala abolishes ^32P-incorporation into I-1 | I-1 (T75A) incorporated 33.8±12.7% of the levels in wild type (100%) | the incorporation of Pi into I-1(S67A) and I-1(T75A) were reduced to 0.35 and 0.30 mol Pi/mol protein, respectively |
